According to paper doi:10.1101/2020.02.06.938233 (bioRxiv, 2020):

Target: the molecule itself
Test: FRET or BRET

B1: UL44(2-433), wild type, as CFP, YFP or RLuc fusion in HEK 293T cells (natural protein)
chain: DRKTRLSEPPTLALRLKPYKTAIQQLRSVIRALKENTTVTFLPTPSLILQTVRSHCVSKITFNSSCLYITDKSFQPKTINNSTPLLGNFMYLTSSKDLTKFYVQDISDLSAKISMCAPDFNMEFSSACVHGQDIVRESENSAVHVDLDFGVVADLLKWIGPHTRVKRNVKKAPCPTGTVQILVHAGPPAIKFILTNGSELEFTANNRVSFHGVKNMRINVQLKNFYQTLLNCAVTKLPCTLRIVTEHDTLLYVASRNGLFAVENFLTEEPFQRGDPFDKNYVGNSGKSRGGGGGGGSLSSLANAGGLHDDGPGLDNDLMNEPMGLGGLGGGGGGGGKKHDRGGGGGSGTRKMSSGGGGGDHDHGLSSKEKYEQHKITSYLTSKGGSGGGGGGGGGGLDRNSGNYFNDAKEESDSEDSVTFEFVPNTKKQKCG
Question: How did the BRET ratio turn out when B1 was run?
Answer: The BRET ratio was 0.36 ± 0.1.
